Experimental findings from publication PMC6497169 (Nature microbiology, 2017) are described below.

To fix the notation:
B2: DotL(590–783)–DotN–IcmSW–LvgA with the (His)10-MBP tag on DotL(590–783) (complex)
chain 1: VEPPPDDYLMKLQKQLASFQSILESGDLSINKAVENEEITLISKALKESTIVEPIERGVAALIAFHGQNEPEPVEDIVEEEVEGALTIFSKLRIDPNAPPILVADKEVFSEPLLPINETRNQMITIERLAGAKDKYAGTVANELIKDFQIATSYPPEERDVIDVQELTGIIRDLSAKISAEREKANKKAAEELT
chain 2: MADNQQRCELKLIASPGSWRLYSARKIDERFKSYEQKIFQRDRYTCQFCGFQARLYQDIVNLDGDYTNNRLSNLVTACCFCAQCFFVESVGVGGYGGGTLIYLPELTQAELNSLCHVLFCAITNDTGYKSSAQNIYRSFKFRSQIVEEKFGEGTSDPAIFGQLMIDSGVNSEEIREKLFKNIRLLPSRAKFRKQIEKWAASALEEIAD
chain 3: MERDISKCMAKIAASMNAKFYLNDRFVSFDEVFSETGLLPAIAKRADQLCSLCLGYGLGATYDESEGALLGIRVVFDEVTPNVLRLLCMTDVMNELIQGGPSRDYTPLDELMYD
chain 4: MPDLSHEASAKYWFEYLDPMIYRVITFMESVENWTLDGNPELEEAMKQLGQELDDIEKIDLGLLAEEDKFIRIVGNIKSGRGLRLLQAIDTVHPGSASRVLIHAEETSLSSSDPAGFFLKRNIVFERLRLLSRVFCQYRLKLVLRALEGDE
chain 5: MADGDIEIKAGFVDTDLDDRKLTMIDDLNNPLAIVERVYLIWWHWADFHLHVISPHIDTITPAIVIEPELIPGSNDHEFVYSIHDSGSKLSTSKSQDMFSAGMSMCKLFYTIEKMVYILVERLKSGGVSMEAEVQIAFAGHEIAQRKAFESIINLPYNVVVTNFDPGIWGEKYLQNVKRLADKGYGYPPESPRKIYMHPVSSGTTARK

Assay [1] deals with B2. In words: BLI.
The next assay deals with VpdB (L. pneumophila, UniProt Q5ZW60 1-598). Briefly: BLI.

B1: SetA (natural protein)
chain: MYKIYSYLGWRIDMKTENLPQAGQEAQIDKKIHFIWVGHIMPQKNIQVVSEWAEKNPGYETIIWVDKKIAPAKELDLFILDMKSKGITVKDINEEGVCRDSIRHELDQESPNYGMVSDMLRLNILAAEGGIYLDSDILCSAPFPDEIYAPFGFLLSPWSQGANNTLCNDIILCSKGNQIIQQLADAIEQSYIARDSFEFTHEYASMKETKGERIAKTLGVTGPGFLFHQLKKMGILNDKSEMEAIHWELQDQRYLIDGSVKEPDYFYVPQNNTNDASWVPSIKRPGIENMSFQERLENAVQLIAFDIQKTGLFNLDHYANELKVKQNSWCIAAETSPELKPDSYLLIRPRDKTGEWTLYYVDEDKKLNPVTLPVIKGAIKLSEVSDPLRKFHTLLSQVSDPVNPTAHELKQIGRALIELKPRQDEWHCKNKWSGAEEIAQELWQRITSNETLRAQIKQCFTQFESLKPRVAELGLTRASGAGTEVEAHESTVKEQEIISQNTVGEEGTKEKNSVQLASENSSDEKIKTAHDLIDEIIQDVIQLDGKLGLLGGNTRQLEDGRVINIPNGAAMIFDDYKKYKQGELTAESALESMIKIAKLSNQLNRHTFFNQRQPETGQFYKKVAAIDLQTTIAAEYDNNHGLRI
As usually defined, the Kd is the equilibrium constant for the complex coming apart. The low end stands for a tighter complex, the high end for a looser complex. One may read the koff as the rate constant with which the complex falls apart. A low value points to slow dissociation. Broadly, the kon is a measure of how fast the partners come together. Read a low kon as slower complex formation. B1: in assay [1], the affinity, expressed as Kd, was 1600 nM; the koff worked out at 0.0203 s⁻¹; the kon amounted to 13100 M⁻¹ s⁻¹.
In the assay with VpdB, B2 registered a Kd of approximately 332 nM, a koff of 0.0039 s⁻¹ and a kon of 11800 M⁻¹ s⁻¹.
